Assay [1] addresses T1, Human Numb full-length (human, UniProt P49757 1-651).
T1 sequence (looked up): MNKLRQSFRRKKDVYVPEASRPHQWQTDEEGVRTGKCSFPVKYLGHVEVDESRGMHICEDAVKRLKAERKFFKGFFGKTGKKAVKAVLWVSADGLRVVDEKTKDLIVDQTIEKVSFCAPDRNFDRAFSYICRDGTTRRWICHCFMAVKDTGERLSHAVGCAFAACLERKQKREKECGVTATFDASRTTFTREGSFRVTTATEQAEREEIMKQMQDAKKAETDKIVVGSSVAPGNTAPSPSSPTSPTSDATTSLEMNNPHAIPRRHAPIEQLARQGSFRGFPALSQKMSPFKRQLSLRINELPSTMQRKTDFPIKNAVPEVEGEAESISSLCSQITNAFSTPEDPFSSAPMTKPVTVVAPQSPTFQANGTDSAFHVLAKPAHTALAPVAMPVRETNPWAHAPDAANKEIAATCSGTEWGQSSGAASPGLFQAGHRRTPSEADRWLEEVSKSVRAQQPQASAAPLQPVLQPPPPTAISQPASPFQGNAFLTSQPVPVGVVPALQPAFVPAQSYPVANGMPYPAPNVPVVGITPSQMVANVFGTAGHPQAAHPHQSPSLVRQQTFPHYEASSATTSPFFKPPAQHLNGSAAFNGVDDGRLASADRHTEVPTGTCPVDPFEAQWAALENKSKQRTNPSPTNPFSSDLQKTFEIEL
The experiment in a line: SPR. (SPR reads the build-up and loss of mass on a sensor chip optically.)

Assay [2] deals with Human Mdm2 (residues 119-438) (human, UniProt Q00987-11 119-438). As to the kind of experiment: SPR.
Chain of Human Mdm2 (residues 119-438) (Q00987 113-432): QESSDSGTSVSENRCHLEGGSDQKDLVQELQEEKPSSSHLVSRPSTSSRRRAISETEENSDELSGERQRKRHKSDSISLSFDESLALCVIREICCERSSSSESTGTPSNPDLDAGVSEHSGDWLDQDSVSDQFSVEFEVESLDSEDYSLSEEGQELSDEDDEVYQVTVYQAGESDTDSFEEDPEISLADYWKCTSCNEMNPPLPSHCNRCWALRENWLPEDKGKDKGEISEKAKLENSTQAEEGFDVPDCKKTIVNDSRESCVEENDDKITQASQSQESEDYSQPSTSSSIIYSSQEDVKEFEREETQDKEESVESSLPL

B1: Human Notch1 intracellular domain (NICD) (residues 2280-2550) (domain or fragment, UniProt P46531 2280-2550, looked up)
chain: SGTSTVLGSSSGGALNFTVGGSTSLNGQCEWLSRLQSGMVPNQYNPLRGSVAPGPLSTQAPSLQHGMVGPLHSSLAASALSQMMSYQGLPSTRLATQPHLVQTQQVQPQNLQMQQQNLQPANIQQQQSLQPPPPPPQPHLGVSSAASGHLGRSFLSGEPSQADVQPLGPSSLAVHTILPQESPALPTSLPSSLVPPVTAAQFLTPPSQHSYSSPVDNTPSHQLQVPEHPFLTPSPESPDQWSSSSPHSNVSDWSEGVSSPPTSMQSQIARI
For orientation: Kd means a measure of binding affinity in units of concentration. Low readings indicate a tighter complex, high ones a looser complex. On to B1, for which the Kd in assay [1] was approximately 14.3 nM.

B2: Human Dlk2 extracellular domain (Dlk2EC, residues 1-306) (domain or fragment, UniProt Q6UY11 27-306, looked up)
chain: DDCSSHCDLAHGCCAPDGSCRCDPGWEGLHCERCVRMPGCQHGTCHQPWQCICHSGWAGKFCDKDEHICTTQSPCQNGGQCMYDGGGEYHCVCLPGFHGRDCERKAGPCEQAGSPCRNGGQCQDDQGFALNFTCRCLVGFVGARCEVNVDDCLMRPCANGATCLDGINRFSCLCPEGFAGRFCTINLDDCASRPCQRGARCRDRVHDFDCLCPSGYGGKTCELVLPVPDPPTTVDTPLGPTSAVVVPATGPAPHSAGAGLLRISVKEVVRRQEAGLGEPS
In the case of B2, the Kd is approximately 2.4 nM in assay [1] and approximately 3.5 nM in assay [2].

For the origin of these results see publication doi:10.1101/2023.07.20.549453 (bioRxiv, 2023).
